Eight molecules from US20040152869A1 (SCHERING, published 2004) can be followed below.

Ends that are not written are not given here.

For data set [1], the target named is T1, proteolytic ADAM33 polypeptide (wild-type ADAM33 catalytic domain with Ser-Gly-His6 Tag, expressed in … (Homo sapiens (Human), UniProt Q9BZ11 204-409)).
T1 sequence: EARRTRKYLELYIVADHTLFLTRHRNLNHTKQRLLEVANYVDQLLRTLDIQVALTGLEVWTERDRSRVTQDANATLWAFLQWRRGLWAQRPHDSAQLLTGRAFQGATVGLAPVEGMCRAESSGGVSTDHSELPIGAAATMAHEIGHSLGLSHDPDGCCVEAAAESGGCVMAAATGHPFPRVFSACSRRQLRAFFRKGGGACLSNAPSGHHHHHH
Briefly: cell-based or functional assay.

Data set [2] has as its target T2, 10-mer truncated form of APP28, YEVHH-QKLVF (SEQ ID NO: 8).
T2 chain: YEVHHQKLVF

Data set [3] addresses T3, Ac-Tyr-Glu-Val-Ala-His-Gln-Lys-Leu-Val-Phe-NH2 (SEQ ID NO: 13).
T3 chain: YEVAHQKLVF

B1: EVAH*QKLA-OH (SEQ ID NO: 37) (peptide)
peptide: EVAHQKLA-OH
As for B1, the “Relative Activity” value in data set [1] worked out at 0.1.

B2: YEVAH*QKLAF-OH (SEQ ID NO: 7) (peptide)
peptide: YEVAHQKLAF-OH
For B2, the “Relative Activity” value in data set [1] was 1.1.

B3: SGYEVAH*QKLAFFA-OH (SEQ ID NO: 11) (peptide)
peptide: SGYEVAHQKLAFFA-OH
Regarding B3, the “Relative Activity” value in data set [1] came out at 1.2.

B4: Ac-Tyr-Glu-Val-Ala-His-Gln-Lys-Leu-Val-Phe-NH2 (SEQ ID NO: 13) (peptide)
peptide: Ac-YEVAHQKLVF-NH2
For B4, in data set [1], the “Relative Activity” value was 1.

B5: SGYEVAH*QKLA-OH (SEQ ID NO: 9) (peptide)
peptide: SGYEVAHQKLA-OH
Turning to B5, in data set [1], the “Relative Activity” value amounted to 0.5.

B6: YEVAH*QKLA-OH (SEQ ID NO: 12) (peptide)
peptide: YEVAHQKLA-OH
For B6, in data set [1], the “Relative Activity” value is 0.9.

B7: Ac-VAH*QKL-NH2 (SEQ ID NO: 38) (peptide)
peptide: Ac-VAHQKL-NH2
With B7, the “Relative Activity” value in data set [1] was 0.

B8: proteolytic ADAM33 polypeptide (wild-type ADAM33 catalytic domain with Ser-Gly-His6 Tag, expressed in Drosophila S2 cells) (protein)
chain: EARRTRKYLELYIVADHTLFLTRHRNLNHTKQRLLEVANYVDQLLRTLDIQVALTGLEVWTERDRSRVTQDANATLWAFLQWRRGLWAQRPHDSAQLLTGRAFQGATVGLAPVEGMCRAESSGGVSTDHSELPIGAAATMAHEIGHSLGLSHDPDGCCVEAAAESGGCVMAAATGHPFPRVFSACSRRQLRAFFRKGGGACLSNAPSGHHHHHH
In the case of B8, the cleavage entry in data set [2] is recorded as “identification of a 10-mer peptide substrate of a proteolytic ADAM33 polypeptide”. In addition, in data set [3], the kcat/Km entry is reported as “kcat/Km=10,000 M-1s-1” and the “rate of cleavage relative to the 10-mer truncated form of APP28 (SEQ ID NO: 8)” value is reported as “at a rate seventeen times greater than the 10-mer truncated form of APP28 (SEQ ID NO: 8)”.
